# Laboratory results taken from patent US20220112276A1 (Janssen / Centocor, published 2022).
# T1: mouse pIgR extracellular domain (ECD) (mouse, UniProt O70570 19-645)
# T1 construct: Bought from R&D Systems (Cat 2800-PG-050); also called mpIgR ECD
# T1 sequence: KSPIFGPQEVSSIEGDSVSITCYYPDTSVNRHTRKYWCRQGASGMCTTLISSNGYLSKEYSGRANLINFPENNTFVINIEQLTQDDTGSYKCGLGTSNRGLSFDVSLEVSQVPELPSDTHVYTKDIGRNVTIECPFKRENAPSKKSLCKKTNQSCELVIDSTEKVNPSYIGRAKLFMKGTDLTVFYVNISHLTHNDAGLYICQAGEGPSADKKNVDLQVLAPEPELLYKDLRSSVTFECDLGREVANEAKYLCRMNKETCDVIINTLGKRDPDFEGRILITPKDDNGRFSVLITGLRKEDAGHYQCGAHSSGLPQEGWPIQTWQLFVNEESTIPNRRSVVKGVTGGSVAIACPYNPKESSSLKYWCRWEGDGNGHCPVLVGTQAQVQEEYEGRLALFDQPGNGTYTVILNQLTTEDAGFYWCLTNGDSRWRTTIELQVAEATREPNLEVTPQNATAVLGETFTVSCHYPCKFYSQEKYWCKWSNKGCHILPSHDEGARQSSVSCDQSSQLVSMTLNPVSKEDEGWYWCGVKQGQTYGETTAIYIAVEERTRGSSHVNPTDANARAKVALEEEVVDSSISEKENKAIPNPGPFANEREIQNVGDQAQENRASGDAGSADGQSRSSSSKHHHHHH
# T2: rat pIgR extracellular domain (rat, UniProt P15083 19-643)
# T2 construct: extracellular domain
# T2 sequence (looked up): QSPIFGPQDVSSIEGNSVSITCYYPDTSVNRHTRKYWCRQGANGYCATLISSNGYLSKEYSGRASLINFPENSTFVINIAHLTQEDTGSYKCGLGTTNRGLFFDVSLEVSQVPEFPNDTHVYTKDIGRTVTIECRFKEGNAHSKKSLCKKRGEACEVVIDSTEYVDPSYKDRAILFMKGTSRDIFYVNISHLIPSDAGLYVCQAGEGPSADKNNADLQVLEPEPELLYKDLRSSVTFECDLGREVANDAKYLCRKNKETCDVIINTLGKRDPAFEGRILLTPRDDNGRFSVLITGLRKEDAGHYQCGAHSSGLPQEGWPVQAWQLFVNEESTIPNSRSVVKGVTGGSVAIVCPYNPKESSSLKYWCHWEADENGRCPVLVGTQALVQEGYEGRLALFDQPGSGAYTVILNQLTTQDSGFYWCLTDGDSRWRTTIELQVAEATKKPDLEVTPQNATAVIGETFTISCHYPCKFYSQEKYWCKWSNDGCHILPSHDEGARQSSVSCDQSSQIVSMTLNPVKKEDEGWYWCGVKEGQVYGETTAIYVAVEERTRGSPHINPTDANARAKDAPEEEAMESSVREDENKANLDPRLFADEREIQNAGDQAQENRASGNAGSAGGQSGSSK
# B1: 01C03R3 VHH Mono-Fc (Fc fusion)
# chain: QVQLVESGGGLVQAGGSLRLSCAASGRTFSSYAMGWFRQAPGKEREFVAAIHWNGASTYRYSADSVKGRFTISRDNAKNTVYLQMNSLKPEDTAAYYCAASPPPTVGDVRDPANYDSWGQGTLVTVSSSPAPELLGGPSVFLFPPKPKDTLMISRTPEVTCVVVDVSHEDPEVKFNWYVDGVEVHNAKTKPREEQYNSTYRVVSVLTVLHQDWLNGKEYKCKVSNKALPAPIEKTISKAKGQPREPQVYTKPPSREEMTKNQVSLSCLVKGFYPSDIAVEWESNGQPENNYKTTVPVLDSDGSFRLASYLTVDKSRWQQGNVFSCSVMHEALHNHYTQKSLSLSPGK
# B2: 01A07R3 VHH Mono-Fc (Fc fusion)
# chain: EVQLVESGGGLVQTGESLRLSCAASGRAFSDLRMAWFRQVPGKEREFVAAVEWRGSSRYYYSADSVKGRFTISRTSPKGETYLQMNGLKPEDTAVYYCAAVSPVVGDPRNSDTYNYWGQGTQVTVSSSPAPELLGGPSVFLFPPKPKDTLMISRTPEVTCVVVDVSHEDPEVKFNWYVDGVEVHNAKTKPREEQYNSTYRVVSVLTVLHQDWLNGKEYKCKVSNKALPAPIEKTISKAKGQPREPQVYTKPPSREEMTKNQVSLSCLVKGFYPSDIAVEWESNGQPENNYKTTVPVLDSDGSFRLASYLTVDKSRWQQGNVFSCSVMHEALHNHYTQKSLSLSPGK
# B3: 03D02R3 VHH Mono-Fc (Fc fusion)
# chain: EVQLVESGGGLAQAGGSLRLSCTASGTISKIDVMAWYRQTPGNERELVARIFSNDVTHYVDSAKGRFTLSRAQDKNTVDLQMNSLEPDDAAVYYCNAQIWSDMRGRMDTYWGQGTLVTVSSSPAPELLGGPSVFLFPPKPKDTLMISRTPEVTCVVVDVSHEDPEVKFNWYVDGVEVHNAKTKPREEQYNSTYRVVSVLTVLHQDWLNGKEYKCKVSNKALPAPIEKTISKAKGQPREPQVYTKPPSREEMTKNQVSLSCLVKGFYPSDIAVEWESNGQPENNYKTTVPVLDSDGSFRLASYLTVDKSRWQQGNVFSCSVMHEALHNHYTQKSLSLSPGK
# B4: 01H10R3 VHH Mono-Fc (Fc fusion)
# chain: QVQLVESGGGLVQAGGSLRLSCAASGRAFSQYTMGWFRQAPGKEREFVTAIRWSGGSIYKYYADSVKGRFTISGDNARNTVDLQMNSLKPEDTAVYYCAARMSPWGDPRGNEYDYWGQGTLVTVSSSPAPELLGGPSVFLFPPKPKDTLMISRTPEVTCVVVDVSHEDPEVKFNWYVDGVEVHNAKTKPREEQYNSTYRVVSVLTVLHQDWLNGKEYKCKVSNKALPAPIEKTISKAKGQPREPQVYTKPPSREEMTKNQVSLSCLVKGFYPSDIAVEWESNGQPENNYKTTVPVLDSDGSFRLASYLTVDKSRWQQGNVFSCSVMHEALHNHYTQKSLSLSPGK
# B5: 01H10R2 VHH Mono-Fc (Fc fusion)
# chain: QVQLVESGGGLVQPGGSLRLSCAASGRTSSISTMGWFRQAPGKEREFVTAIRWSGSSSYKYYADSVKGRFTISRDNARNTVYLQMNSLKPEDTAVYYCAAQMSLWRDPREIDYDYWGQGTLVTVSSSPAPELLGGPSVFLFPPKPKDTLMISRTPEVTCVVVDVSHEDPEVKFNWYVDGVEVHNAKTKPREEQYNSTYRVVSVLTVLHQDWLNGKEYKCKVSNKALPAPIEKTISKAKGQPREPQVYTKPPSREEMTKNQVSLSCLVKGFYPSDIAVEWESNGQPENNYKTTVPVLDSDGSFRLASYLTVDKSRWQQGNVFSCSVMHEALHNHYTQKSLSLSPGK
# Target: T1, mouse pIgR extracellular domain (ECD)
# Test: SPR, VHH captured by anti-Fc, ECD analyte
# Summary of the method: (§1)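 Anti-human Fc surface captured VHH at 0.5 ug/ml (~200-300 RU); running buffer HBSP with 100 ug/ml BSA, 30 μL/min. Single-cycle kinetics with ECD injected low to high from 30 nM in 3-fold dilutions, dissociation 30 min. Double-referenced data globally fit to 1:1 Langmuir model for kon, koff, KD.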
row,Kd,Binder
1,25.6 nM,B1
2,1.41 nM,B2
3,126 nM,B3
4,47.1 nM,B4
5,3.45 nM,B5

# Target: T3, cynomolgus monkey pIgR extracellular domain (cynomolgus monkey, UniProt A0A2K5WMU9 19-638)
# T3 construct: extracellular domain
# Test: SPR, VHH captured by anti-Fc, ECD analyte
# Summary of the method: as §1
# T3 sequence (A0A2K5WMU9 entry or part of it): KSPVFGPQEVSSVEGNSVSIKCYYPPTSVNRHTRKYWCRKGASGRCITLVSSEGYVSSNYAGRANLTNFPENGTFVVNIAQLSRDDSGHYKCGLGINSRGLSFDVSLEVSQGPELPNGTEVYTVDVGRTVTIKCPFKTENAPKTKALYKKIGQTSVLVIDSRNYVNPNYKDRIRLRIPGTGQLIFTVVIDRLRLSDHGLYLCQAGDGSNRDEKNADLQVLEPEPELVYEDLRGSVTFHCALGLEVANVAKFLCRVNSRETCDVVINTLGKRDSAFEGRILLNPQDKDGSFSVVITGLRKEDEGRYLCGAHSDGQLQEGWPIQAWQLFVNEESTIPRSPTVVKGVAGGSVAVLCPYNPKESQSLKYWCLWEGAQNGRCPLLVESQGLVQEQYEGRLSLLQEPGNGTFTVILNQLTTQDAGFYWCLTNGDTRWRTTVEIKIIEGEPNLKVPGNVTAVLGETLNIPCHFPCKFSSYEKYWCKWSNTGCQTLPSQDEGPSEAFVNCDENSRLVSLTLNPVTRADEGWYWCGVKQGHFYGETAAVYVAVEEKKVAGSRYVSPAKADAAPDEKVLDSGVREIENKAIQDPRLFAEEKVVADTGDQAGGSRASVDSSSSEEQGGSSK
row,Kd,Binder
1,22.2 nM,B1
2,10.7 nM,B2
3,37.8 nM,B3
4,94.6 nM,B4
5,2.92 nM,B5

# Target: T4, human pIgR extracellular domain (ECD) (human, UniProt P01833 19-638)
# T4 construct: Bought from R&D Systems (Cat 2717-PG-050); also called hpIgR ECD
# Test: SPR, VHH captured by anti-Fc, ECD analyte
# Summary of the method: as §1
# T4 sequence (P01833 other isoform, or with tags, fused parts or gaps): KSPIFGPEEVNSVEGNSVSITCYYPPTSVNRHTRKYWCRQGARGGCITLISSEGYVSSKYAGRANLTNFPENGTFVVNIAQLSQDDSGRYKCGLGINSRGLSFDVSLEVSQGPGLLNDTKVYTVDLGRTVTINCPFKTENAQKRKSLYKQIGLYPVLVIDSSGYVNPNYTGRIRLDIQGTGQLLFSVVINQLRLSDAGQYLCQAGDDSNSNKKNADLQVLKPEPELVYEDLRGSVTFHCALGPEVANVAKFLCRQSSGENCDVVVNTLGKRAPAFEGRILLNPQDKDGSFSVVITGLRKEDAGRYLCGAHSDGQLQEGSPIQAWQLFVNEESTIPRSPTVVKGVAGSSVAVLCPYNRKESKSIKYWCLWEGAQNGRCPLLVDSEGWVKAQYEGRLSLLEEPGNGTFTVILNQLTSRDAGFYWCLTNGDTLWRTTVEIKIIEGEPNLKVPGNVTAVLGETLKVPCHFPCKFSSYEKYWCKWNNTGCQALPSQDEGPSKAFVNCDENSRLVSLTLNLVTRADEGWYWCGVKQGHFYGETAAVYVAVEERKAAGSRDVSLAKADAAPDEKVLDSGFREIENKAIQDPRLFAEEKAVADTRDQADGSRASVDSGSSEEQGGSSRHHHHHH
row,Kd,Binder
1,13.3 nM,B1
2,0.2 nM,B2
3,0.391 nM,B3
4,34 nM,B4
5,5.95 nM,B5

# Target: T2, rat pIgR extracellular domain
# Test: SPR, VHH captured by anti-Fc, ECD analyte
# Summary of the method: as §1
row,Kd,Binder
1,15.2 nM,B1
2,1.24 nM,B2
3,126 nM,B3
4,11.4 nM,B4
5,2.4 nM,B5
